# Reference: the Human Domainome abundance scans (Beltran et al. 2025)
# ± gives the uncertainty stated by the source.
# B1: Transitional endoplasmic reticulum ATPase, residues 26 to 106; numbered along this chain, P55072 (parent)
# chain: LIVDEAINEDNSVVSLSQPKMDELQLFRGDTVLLKGKKRREAVCIVLSDDTCSDEKIRMNRVVRNNLRVRLGDVISIQPCP
# Variants of: B1
# Test: abundance fitness (aPCA) (normalised: wild type 0, dead -1); higher = more abundant; growth selection in yeast, the domain comes from the species named
# Settings: Homo sapiens
row,Variant,abundance fitness
1,S48M,-0.05 ± 0.094
2,S48A,0.065 ± 0.065
3,S48Y,-0.168 ± 0.1
4,S48R,-0.015 ± 0.051
5,S48Q,-0.106 ± 0.1
6,S48T,-0.005 ± 0.074
7,S48D,-0.137 ± 0.1
8,S48N,0.049 ± 0.14
9,S48V,0.004 ± 0.055
10,S48E,0.04 ± 0.079
11,S48F,-0.342 ± 0.17
12,S48I,0.031 ± 0.15
13,S48G,0.001 ± 0.049
14,S48C,0.07 ± 0.068
15,S48W,-0.357 ± 0.18
16,S48K,-0.004 ± 0.11
17,S48H,-0.23 ± 0.12
18,C44A,-0.017 ± 0.062
19,C44R,-0.104 ± 0.053
20,C44T,-0.066 ± 0.07
21,C44Q,0.106 ± 0.083
22,C44P,-0.969 ± 0.14
23,C44G,-0.006 ± 0.051
24,C44V,-0.026 ± 0.074

row,Variant,abundance fitness
1,C44L,-0.02 ± 0.034
2,C44D,-0.707 ± 0.14
3,C44F,-0.074 ± 0.091
4,C44N,-0.172 ± 0.25
5,C44M,0.085 ± 0.077
6,C44S,-0.032 ± 0.069
7,C44I,-0.189 ± 0.099
8,C44Y,-0.091 ± 0.13
9,C44K,0.057 ± 0.075
10,C44E,-0.559 ± 0.18
11,V46K,-0.528 ± 0.21
12,V46R,-0.951 ± 0.15
13,V46L,-0.183 ± 0.046
14,V46F,-0.688 ± 0.15
15,V46P,-0.439 ± 0.1
16,V46W,-0.74 ± 0.19
17,V46N,-0.749 ± 0.21
18,V46C,-0.048 ± 0.095
19,V46E,-0.649 ± 0.1
20,V46S,-0.493 ± 0.078
21,V46D,-0.804 ± 0.17
22,V46T,-0.147 ± 0.085
23,V46Y,-0.911 ± 0.23
24,V46I,-0.175 ± 0.07

row,Variant,abundance fitness
1,V46M,-0.376 ± 0.12
2,S53I,-0.204 ± 0.13
3,S53N,0.044 ± 0.15
4,S53C,-0.042 ± 0.081
5,S53G,-0.019 ± 0.048
6,S53M,-0.09 ± 0.073
7,S53D,0.021 ± 0.14
8,S53A,-0.019 ± 0.048
9,S53E,0.003 ± 0.091
10,S53F,-0.032 ± 0.069
11,S53K,-0.016 ± 0.11
12,S53L,-0.026 ± 0.065
13,S53H,-0.102 ± 0.12
14,S53P,-0.142 ± 0.1
15,I45Y,-0.029 ± 0.11
16,I45W,-0.176 ± 0.086
17,I45A,-0.006 ± 0.057
18,I45V,0.028 ± 0.032
19,I45K,-0.002 ± 0.13
20,I45C,0.008 ± 0.063
21,I45M,-0.137 ± 0.064
22,I45H,-0.088 ± 0.084
23,I45S,-0.028 ± 0.059
24,I45R,0.054 ± 0.055

row,Variant,abundance fitness
1,I45P,-0.157 ± 0.12
2,I45L,-0.016 ± 0.059
3,I45E,0.035 ± 0.1
4,I45G,-0.06 ± 0.036
5,I45D,-0.183 ± 0.084
6,I45F,-0.018 ± 0.076
7,I45N,0.036 ± 0.13
8,D49R,-0.627 ± 0.064
9,D49T,-0.01 ± 0.097
10,D49A,-0.139 ± 0.07
11,D49H,-0.251 ± 0.19
12,D49Q,-0.307 ± 0.11
13,D49V,-0.455 ± 0.068
14,D49S,0.064 ± 0.057
15,D49E,-0.094 ± 0.13
16,D49M,-0.78 ± 0.2
17,D49G,-0.204 ± 0.054
18,D49W,-0.923 ± 0.14
19,D49P,-0.743 ± 0.21
20,D49K,-0.529 ± 0.41
21,D49L,-0.904 ± 0.15
22,D49C,-0.468 ± 0.4
23,D49N,-0.254 ± 0.15
24,D49F,-0.936 ± 0.29

row,Variant,abundance fitness
1,D49Y,-0.745 ± 0.23
2,T51V,-0.145 ± 0.052
3,T51K,-0.065 ± 0.088
4,T51D,0.026 ± 0.094
5,T51R,-0.086 ± 0.062
6,T51Y,-0.277 ± 0.12
7,T51I,-0.19 ± 0.11
8,T51N,0.126 ± 0.14
9,T51S,-0.052 ± 0.054
10,T51W,-0.275 ± 0.068
11,T51G,-0.024 ± 0.045
12,T51Q,-0.183 ± 0.12
13,T51H,-0.515 ± 0.41
14,T51E,0.05 ± 0.07
15,T51P,-0.306 ± 0.16
16,T51M,-0.131 ± 0.076
17,T51L,-0.117 ± 0.063
18,T51C,-0.064 ± 0.1
19,C52K,-0.334 ± 0.14
20,C52P,-0.624 ± 0.13
21,C52H,-0.452 ± 0.26
22,C52I,-0.091 ± 0.2
23,C52Y,-0.439 ± 0.12
24,C52A,-0.253 ± 0.069

row,Variant,abundance fitness
1,C52T,-0.027 ± 0.071
2,C52S,-0.261 ± 0.066
3,C52L,0.018 ± 0.059
4,C52R,-0.192 ± 0.059
5,C52E,-0.416 ± 0.085
6,C52V,-0.062 ± 0.054
7,C52M,-0.016 ± 0.092
8,C52W,-0.728 ± 0.11
9,C52G,-0.197 ± 0.047
10,C52Q,-0.026 ± 0.095
11,C52F,-0.495 ± 0.27
12,C52D,-0.433 ± 0.11
13,D50R,-0.057 ± 0.054
14,D50T,-0.037 ± 0.087
15,D50I,-0.059 ± 0.1
16,D50P,-0.105 ± 0.11
17,D50G,0.031 ± 0.046
18,D50H,-0.021 ± 0.16
19,D50N,-0.105 ± 0.16
20,D50A,-0.023 ± 0.056
21,D50L,-0.146 ± 0.058
22,D50Y,-0.246 ± 0.11
23,D50M,0.025 ± 0.1
24,D50F,-0.214 ± 0.13

row,Variant,abundance fitness
1,D50K,-0.105 ± 0.18
2,D50V,-0.12 ± 0.044
3,D50Q,-0.277 ± 0.2
4,D50E,-0.023 ± 0.081
5,L47W,-0.07 ± 0.073
6,L47S,-0.068 ± 0.061
7,L47P,-0.756 ± 0.17
8,L47Y,-0.087 ± 0.16
9,L47V,-0.018 ± 0.052
10,L47R,-0.01 ± 0.054
11,L47H,0.126 ± 0.12
12,L47Q,-0.015 ± 0.088
13,L47F,0.052 ± 0.12
14,L47E,0.055 ± 0.09
15,L47K,-0.036 ± 0.076
16,L47A,0.082 ± 0.061
17,L47D,-0.056 ± 0.076
18,L47G,0.024 ± 0.043
19,L47M,0.082 ± 0.095
20,L47I,-0.042 ± 0.083
21,L47T,-0.116 ± 0.099
22,L47N,0.028 ± 0.16
23,L47C,-0.05 ± 0.087
